The record followed here is paper doi:10.1101/2020.01.29.926220v1.

Test in all cases: spectrophotometric hydrolysis, initial rates, Hanes-Woolf
Type in all cases: biochemical, Yersinia mollaretii
What all share (settings): 50 mM MES pH 6.0, 30°C

Data set [1] concerns C[C@@H](O)[C@H]1C(=O)N2C(C(=O)O)=C(S[C@@H]3CN[C@H](C(=O)Nc4cccc(C(=O)O)c4)C3)[C@H](C)[C@H]12.
Data set [2] has as its system C[C@@H](O)[C@H]1C(=O)N2C(C(=O)O)=C(S[C@@H]3CN[C@H](C(=O)N(C)C)C3)[C@H](C)[C@H]12.
The test system of data set [3] is C[C@@H](O)[C@H]1C(=O)N2C(C(=O)O)=C(S[C@@H]3CN[C@H](CNS(N)(=O)=O)C3)[C@H](C)[C@H]12.
In data set [4] the test system is C[C@@H](O)[C@H]1C(=O)N2C(C(=O)O)=C(SCCN=CN)C[C@H]12.
The subject of data set [5] is C[C@@H](O)[C@H]1C(=O)N2C(C(=O)[O-])=C(SC3Cn4cnc[n+]4C3)[C@H](C)[C@H]12.

On to YEM-1 (Yersinia mollaretii ATCC 43969), for which the kcat in data set [1] is more than 400 s⁻¹; in data set [2], more than 400 s⁻¹; in data set [3], more than 100 s⁻¹; in data set [4] it was 480 s⁻¹; in data set [5], more than 16 s⁻¹. Besides, the Michaelis constant (Km) in data set [4] came to 160 µM.
